From a protein production outcome set (Wang et al. 2014) come the findings set out here.

A short description of this data set: label from the status in PepcDB records.
For the sequence “MEIAPSTSRFKLYDQFELLEFPDKYVVKPIESPEEGFSVNRRDGNIKPLDENASSGSPTRVSTIYGVGGTIRLLAGTYLLVITSREEVGNFLGLPIFRVTAMKFLPCNEALRFATAQEKKDETYFRTLLQALETTPGLYFSYETDLTLNLQRRCKLAEGWNRKPMWKQADPRYVWNWHLLEDLIECKLDGFIIPILQGSYQVAELKLKNSPAVVSIMSRRCTRRLGTRMWRRGANLEGDAANFVESEQIVEINGFKFSLLQVRGSIPLLWEQIVDLSYKPRLKINKHEETPKVVQRHFHDLCQRYGEIMAVDLTDQHGDEGALSKAYATEMEKLPDVRYVSFDFHQVCGTTNFDNLGVLYEQIGDEFEKQGYFLVDADENILEEQKGVIRSNCIDCLDRTNVTQSFMGQKSLNLQLQRIGVCDSTECISTFEDDYTKFRTIWAEQGDEVSLQYAGTYALKGDLVRYGKQTMTGAIKDGLSAMSRYYLNNFQDGVRQDALDLISGRYTVGTHSPSQLQPIGSQPSFLPVASALLIGGVTVTSFTIHQAGRNTQQYLASALWAGVTAGVVAMIKANGRHLTSRPRLCHLI”, the protein production result is recorded as “failed”.
The value for “MKIYHKFLLYQNKLLKPYVRILLGLVEALTYLASLLLIVGVVYEHGFPLSPVEVQQIQILYKAVWIIFLIDVTLHISLEYRNTKKQYRRLAWILSVLLYLTLVPVIFHRPEEEGAILQVWEFLHGKFYHLILLLVFSLLNLSNGLVRLLGRRTNPSLILAVSFMAIILIGTGLLMLPRCTVNGITWVDSLFTATSAVCVTGLVPVDVSTTFTTSGLVVIILLIQIGGLGVMTLTSFFAMFFMGNTSIYNQLVVRDMVSSNSLGSLLSTLLYILGFTLVIEGIGMVSIWFSIHDTLGMNLEEELAFAAFHSISAFCNAGFSTLSGNLGNSMVMTNHNWLFISVSLLIILGGIGFPILVNFKDIVLYHLRHVWTFVRTRKLERHKMPHLYNLNTKIVLIMTFLLLLIGTLAILAFEWNASFAGMSVADKWTQAFFNATCPRTAGFSSVDLASLSVQTLLVYLFLMWVGGGSQSTAGGVKVNAFAVVVLNLVAVLRGSERVEVFGRELSHDSIRRSNATVVMSLGVLFLFIFILSILEPKASLLALTFECVSALSTVGSSLNLTPQLCDASKLLVSLLMFIGRVGLITLMLGIVKQKKNTKYRYPSDNIIIN” was “failed”; that for “MSFYVVVGAGPVGRETARLLGEEGHDVVLTSRSVGSNALPNVRTVQADATDASELSRICRGADAIFMCAMAAYHRWPTDFFPIIDGTVRAAEAVGAKLIVLGNLYGYGENADSPLRSDLPLDPTSRKGTARTIMWQRAVRAGIPAIEIRSSDYLGHGAISYFSLIALPAIIEGKPTAFIGDLDATHAWAFTKDVARTLVAAALYKGEWGRAFHVPSQYASPRELIQKAAAMLGQEVSGTLSYSVPEIEALGMHEAIEMSYLFEKPLLVDASDTEALLGVKASSLEEMIADTLRDHL” was “failed”; that for “MSEIILVTGAAGQLGQRVIHHLIETYKVAPGNIVAATRSPEKLSELEKKGVVTRKADFDDAAGLEKAFAGVDRLLIISTDALDTPGKRLAQHKGAVAAAVKSGVKHIAYTSMPGPDNSLVTFAPDHLGSENAIKASGIAHTIIRDAWYHDNYLHGMPHNLQGGKWYSATGDGKISTISRDDCALAIAAALASGTSESATYTVTGTQSLNSRQIAAIVSDVAGKPLEVIDVTDEQLGQGMRGAGLPGFVADMLVSADANTRAGKFDIVTEDFTKLTGKQPQPLKDFFVEHKATLTA” was “failed”.
The result for “MKTRSSDAEGDSRGKMIAPVGEGNGGRKRKLVQSNEQKNDIQREEDGRAKRRIVQSSDQKNGKILRGIRGCVSPRCSAQTYQSRFSWYEQDIWTYISRFLDGKSLVKLGATNKWFYKIAMEDTVWRFACLRDLQVPVPFPVSSTWIKIYASAFDGSHSYLFRQKEKHIGAFVLDSRTSLLTESLSGRLKFPREGTIERMLQSSGSCLINDIKSGIWIADLQLVRCPVCDLSTCDGTMQTLDARHIELFLSEGYKDGSWDYNLIGSHKLQKNASAACGAIFDLKHLKESSYSGILNLKSWTGESNDSQPKAVIAPHAVAVHTRLQENEGILVKYHTMKAGTDGDIVSIRISQQLL” reads “failed”; that for “EDATPETVEYRQLSAADLLADTHLLREVFGLLVLAHYRTEPSDLARLLDAPNLTVRALTHEGHVVAVALLAQEGGLSASTRATMYEGGRVRGNMLPDVLSTQLRDEAAGVPVGQRVLRIATHAAVRSRGLGSKLLSEIRAEFADHVDWVGVSYGATPELVRFWADNGYNTVHLATSRNATSGEYSVVMLDP”, “failed”.
For “MEYQLQQLASLTLVGIKETYENGRQAQQHIAGFWQRCYQEGVIADLQLKNNGDLAGILGLCIPELDGKMSYMIAVTGDNSADIAKYDVITLASSKYMVFEAQGAVPKAVQQKMEEVHHYIHQYQANTVKSAPFFELYQDGDTTSEKYITEIWMPVKG”, the protein production result was “not failed”.
The value for “MFCTLAGYRWLNSGSLLRRLSQRAVRRLPTAPLCHLHNGATESAASNGALRIVDEKVAYRRYATVFERTVQYPDGRHVTYDILGQPAVQSASVLVFPFDTQSKTCYVIREYCPGPNRVLYGFPAGMVETKHESLEAAARAELSEEAHLRCAQLIDLTAQAAVWERSFEVPNTASDAENCLRGFFADKYSRNVCKMYLALNPEPDGHPGSMDAEELIEQVGAVRVPQLEAWLWSGQMTMPHMLLAMCALTYLRQRGMLT” was “failed”.
The result for “MEIIAAILVGIVALEHLFIMILEMFFMNSKVAKRAFKLPEHLEGDRNVAIMFANQGLYNGFLAVGLIWGLILGFNSIGYMVQLFFVMCVVVAALFGGFTSNKSIIVKQGLPAILALIALLIVI” reads “failed”.
For the sequence “MEYHLQTPLKFEDIEKLNAGDIVYISGEILTARDEAHARILEMEERGEELPFSLEGAVIYHCGPLMQQTESGWKVISAGPTTSGRMSKMTPPLLKTHKVRAIIGKGGMKNVADSLKSCCVYLAYTGGCAALAAELIKDVKTVHWPDLGMPEAVWILRVEKFGPLIVGIDAKGKDIFSEVREKAEKALEELQK”, the protein production entry was “failed”.
The result for “MEKRELKASVPKFDKIPWLSEASLVNKPLVLSLPRRYPHTSATFLTSSKKNMNLPILFQVPDVLSKARRNQCDSMLLRNQQLCSTCQEMKMVQPRTMKIPDDPKASFENCMSYRMSLHQPKFQTTPEPFHDDIPTENIHYRLPILGPRTAVFHGLLTEAYKTLKERQRSSLPRKEPIGKTTRQ” reads “failed”; that for “MTMLQIVGALILLIAGFAILRLLFRALTSTASALAGFILLCLFGPALLAGYITERITRLFHIRWLAGVFLTIAGMIISFMWGLDGKHIALEAHTFDSVKFILTTALAAGLLALPVQIRTIQQNGLTPEDISKEINGYYCCFYTAFFLMACSAYAPLIALQFDISPSLMWWGGLLYWLAALVTLLWAASQIQALKRLTSAISQTLEEQPVLNSKSWLSSLQNDYSLPETLTERIWLTLISQRISRGELREFELADGNWLLDNAWYERNMAGFNEKLRESLSFTPDELKTLFRNRLNLSPEANDDFLDRCLDGGDWYPFSEGRRFVSFHHVDELRICASCGLTEVHHAPENHKPDPEWYCSSLCRETETLCQDIYERSHTGFISDATANGLILMKLPETWSTNEKMFASGGQGHGFAAERGNHIVDRVRLKNARILGDNNARNGADRLVSGTEIQTKYCSTAVRSVGAAFDGQNGQYRYMGNHGPMQLEVPRDQYAGAVETMKNKIREGKVPGVTDPAEASRLIRRGHLTYTQARNITRFGTIESVTYDIAEGSVVSLAAGGISFALTTSVFWLSTGDRDAALQTAAVQAGKTFTRTLAVYVTTQQLHRLSVVQGMLKHIDFSTASPTVRQALQKGTGAGNISALNKVMKGTLVTSLALVAVTTGPDMIKMLRGRISGAQFIRNLAVASSGVAGGAVGSVAGGILFSPLGPFGALTGRVVGGVLGGMIASAVSGKIAGALVEEDRVKILAMIQEQVTWLAGSFLLTGHEIENLNANLARVIDQNALEIIFAAGIQQRAATNMLIKPLVVSIIRQRPVMEYDASHLGNMVNRLEETLPPELPA”, “failed”.
The value for “MAVDVPGIISPKTAEAASQLTDGIGGRAYLNSNGAILVTKIQLPSSTQVSNGTAYIYSGFSGGTESDIGFQYSDKYNVWKPYMKVGSKGQDQVQYLEGGSQFTNTKGFRPGSTVQLTIYKNLNGNTRATYWGTNNAGYNGRLISEISKTNVGSISKWKALATVATTGSRQSIKSNFSTSFTNITIDNKAITPVIDTQDFAKVTVSGNSVSLSVVKNLEHHHHHH” was “not failed”.
The result for “MAFCSLEKRHAILDWPQLQLTNGSGRCSGRVEVYYHGQWGRVCDDQWDLREADVVCRQLNCGDALEAPVQARFGDGPGEFLLDEMDCTGTESFLGQCPHAGWHLHNCGSGEDASVICEGNGEELVARPQVLPVADPVPGSRRAHVPRLSLNGADMSPDPTPVIDPDPESSKPSGDWAPVRLSGNHGSCAGRVELFYQGVWGTVCDDLWDLTEANIICRQLGCGRAVSALSEAYFGQGSGKILLDNVHCKGHEEHLEECSHLGWFSHNCDHSEDASVICSDAEYGMATLSDHPLAVMEGAMNPEKSRCGGVITKAPGKIKNPPMNEMHDNITCVWEIRANTSDRIRLAFPSLDLDCTNEYFEILDGPPSSVKSLGKPCRGLHVTFASHSNSMTLVYFRGENNIGKNFMAYYYFEAKEVTTKTPYLITIPTATSKMVTERPQFSKPAQPTHTPSGNVSPLPVPDSGDWPELRLVGGSNRCSGRVEILYQGVWGTVCDDLWDLNEAEVVCRQLECGQAVSSLGEAYFGPGSGDIFLDNLQCSGLEHYLSQCPHSGWSEHNCGHHEDAGVICSDSGAPPPPMPPGPPPTSQDPLTGGSNSCGGVISSLSGSFTSPQYPENYPTDIQCVWEIHVEKNFRIELMIPNLNLEDILGCPYDSVEIFDGPRIPSLSMGKFCAPSAVVFFSSSDILTVVFRSDYMTTNTGFYAFFNAIPQDGKESEERPVLRLAGSSGQCSGRVEILHQGAWGTVCDDLWDLNEAEVVCRQLGCGHAIAAPGSAYFGPGSGNILLDNIQCSGKENHFGQCSSSAWLDHNCGHHEDAGVICSDAEVTPSPTEGSQSCGGVISSLSGSFSSPWYPTNYPTDTECIWEIHVAEKFNIELTIPSLK” reads “failed”; that for “MNITKAFCLSIALLGASNMQAITNSDFVIQQDNTKINNYQTNRPETSKRLFVSQAVEQQIAHIKQLLTNARLAWMFENCFPNTLDTTVHFDGKDDTFVYTGDIHAMWLRDSGAQVWPYVQLANKDAELKKMLAGVIKRQFKCINIDPYANAFNMNSEGGEWMSDLTDMKPELHERKWEIDSLCYPIRLAYHYWKTTGDASIFSDEWLTAIAKVLKTFKEQQRKEDPKGPYRFQRKTERALDTMTNDGWGNPVKPVGLIASAFRPSDDATTFQFLVPSNFFAVTSLRKAAEILNTVNKKPDLAKECTTLSNEVETALKKYAVYNHPKYGKIYAFEVDGFGNQLLMDDANVPSLIALPYLGDVKVNDPIYQNTRKFVWSEDNPYFFKGTAGEGIGGPHIGYDMIWPMSIMMKAFTSQNDAEIKTCIKMLMDTDAGTGFMHESFHKNDPKNFTRSWFAWQNTLFGELILKLVNEGKVDLLNSIQLEHHHHHH”, “failed”.
Turning to “MSLGNNSAKGTATGNATALWRNAQLATLNPAMDGIGAVENAVIAVRNGRIAFAGPESDLPDDLSTADETTDCGGRWITPALIDCHTHLVFGGNRAMEFEMRLNGATYEEIAKAGGGIVSSVRDTRALSDEVLVAQALPRLDTLLSEGVSTIEIKSGYGLDIETELKMLRVARRLETLRPVRIVTSYLAAHATPADYKGRNADYITDVVLPGLEKAHAEGLADAVDGFCEGIAFSVKEIDRVFAAAQQRGLPVKLHAEQLSNLGGAELAASYNALSADHLEYLDETGAKALAKAGTVAVLLPGAFYALREKQLPPVQALRDAGAEIALATDCNPGTSPLTSLLLTMNMGATLFRMTVEECLTATTRNAAKALGLLAETGTLEAGKSADFAIWDIERPAELVYRIGFNPLHARIFKGQKVSPEGHHHHHH”, the protein production result is on record as “not failed”.
The value for “MKIWTSEHVFDHPWETVTTAAMQKYPNPMNPSVVGVDVLDRHIDPSGKLHSHRLLSTEWGLPSIVKSLIGAARTKTYVQEHSVVDPVEKTMELKSTNISFTNMVSVDERLIYKPHPQDPEKTVLTQEAIITVKGVSLSSYLEGLMASTISSNASKGREAMEWVIHKLNAEIEELTASARGTIRTPMAAAAFAEK” was “failed”.
